Literature values, collected in paper PMC4664823.

What was measured:
Glu14 = Glu14 (UniProt position 14, GAILAEVIGTT); settings: competition between substrate and protons; various preparations in earlier work
Asp14 = Asp14 (UniProt position 14, GAILADVIGTT); settings: competition between substrate and protons; various preparations in earlier work

EmrE (small multidrug resistance transporter), wild type (Escherichia coli)
pKa (Glu14): 6.8 to 8.5 and ≈7.3

E14D-EmrE (Escherichia coli; E14D)
pKa (Asp14): ≈5.0–6.7 and ≈5.4
